Experimental data as given in patent US20090258344.

B1: bacterially expressed Histidine tag fusion of KIAA0861 DH-PH domain protein (protein)
chain: PRRRIIRDLLETEEIYIKEIKSIIDGYITPMDFIWLKHLIPDVLQNNKDFLFGNIRELYEFHNRTFLKELEKCAENPELLAHCFLKRKEDLQIYFKYHKNLPRARAIWQECQDCAYFGVCQRQLDHNLPLFKYLKGPSQRLIKYQMLLKGLLDFESPEDMEIDPGELGGSAKDGPKRTKDSAFSTELQQALAVIEDLIKSCELAVDLAAVTECPDDIGKLGKLLLHGPFSVWTIHKDRYKMKDLIRFKPSQRQIYLFERGIVFCKIRMEPGDQGLSPHYSFKKTMKLMTLSIRQLGRGSHRKFEIASRNGLEKYILQAASKEIRDCWFSEISKLLM
B2: bacterially expressed Histidine tag fusion of Dbs DH-PH domain protein (protein)
chain: LRRHVMSELLDTERAYVEELLCVLEGYAAEMDNPLMAHLLSTGLHNKKDVLFGNMEEIYHFHNRIFLRELENYTDCPELVGRCFLERMEDFQIYEKYCQNKPRSESLWRQCSDCPFFQECQRKLDHKLSLDSYLLKPVQRITKYQLLLKEMLKYSRNCEGAEDLQEALSSILGILKAVNDSMHLIAITGYDGNLGDLGKLLMQGSFSVWTDHKRGHTKVKELARFKPMQRHLFLHEKAVLFCKKREENGEGYEKAPSYSYKQSLNMAAVGITENVKGDAKKFEIWYNAREEVYIVQAPTPEIKAAWVNEIRKVLT

Columns and labels:
[1] = molecular target: GST-tag fusion of the GTPase Cdc42
[2] = molecular target: GST-tag fusion of the GTPase RhoA

| Protein | N-methylanthraniloyl(mant)-GTP incorporation into Rho GTPase, relative fluorescence (guanine nucleotide exchange assay) [1] | N-methylanthraniloyl(mant)-GTP incorporation into Rho GTPase, relative fluorescence (guanine nucleotide exchange assay) [2] |
| --- | --- | --- |
| B1 | KIAA0861 and DBS DH-PH domain proteins are active in exchanging guanine nucleotide from the GST-tag fusions of the GTPases, RhoA and Cdc42 | KIAA0861 and DBS DH-PH domain proteins are active in exchanging guanine nucleotide from the GST-tag fusions of the GTPases, RhoA and Cdc42 |
| B2 | KIAA0861 and DBS DH-PH domain proteins are active in exchanging guanine nucleotide from the GST-tag fusions of the GTPases, RhoA and Cdc42 | KIAA0861 and DBS DH-PH domain proteins are active in exchanging guanine nucleotide from the GST-tag fusions of the GTPases, RhoA and Cdc42 |
